Source: article PMC3595365 (Molecular cell, 2013)

What was measured:
His6-NEDD8 = His6-NEDD8 (UniProt Q15843 1-76); experiment: BLI
His6-ubiquitin = His6-ubiquitin (UniProt P0CG48 1-76); experiment: BLI

Chain of His6-NEDD8 (Q15843 1-76): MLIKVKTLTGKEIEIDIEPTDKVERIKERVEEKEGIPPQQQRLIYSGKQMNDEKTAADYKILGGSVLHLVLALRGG

In the case of RHKQEEQDRLLALQLQKEVDKEQM (domain or fragment, UniProt Q8IYW5 439-462, looked up) [GST-RNF168-MIU2 (439-462)], the Kd (His6-NEDD8) is reported as 14 ± 3 µM and the Kd (His6-ubiquitin) is reported as 17 ± 3 µM.
